Assay results published in US6849712B1, “Peptides with β1 integrin subunit dependent cell adhesion modulating activity” (Regents of the University of Minnesota, priority 1998, dated 2005).
Entries after “also recorded” stand apart in the source; their conditions may differ. Where no end group is shown, it is not given here. [ ]: non-standard residue; d: D form.

Molecular target: T1, α5β1 integrin (Homo sapiens, UniProt P05556+P08648)
T1 construct: erythroleukemic cell line K562, which expresses α5β1 but not α4β1 integrin; endogenous in cells; host or cells: K562 cells
Test: Inhibition of α5β1 integrin dependent Mn+2 stimulated adhesion of K562 cells to fibronectin (FN)
Format: cell-based
Conditions: 0.84 mM peptide; K562 cells stimulated with 1 mM MnCl2
Method: The cell adhesion assay was carried out as described above. […] Each data point represents the mean of triplicate determinations and the error bars represent the standard deviation of the mean. The solid black line represents adhesion to the negative control substrate, BSA.

T1 sequence (P08648 42-894 limits assumed): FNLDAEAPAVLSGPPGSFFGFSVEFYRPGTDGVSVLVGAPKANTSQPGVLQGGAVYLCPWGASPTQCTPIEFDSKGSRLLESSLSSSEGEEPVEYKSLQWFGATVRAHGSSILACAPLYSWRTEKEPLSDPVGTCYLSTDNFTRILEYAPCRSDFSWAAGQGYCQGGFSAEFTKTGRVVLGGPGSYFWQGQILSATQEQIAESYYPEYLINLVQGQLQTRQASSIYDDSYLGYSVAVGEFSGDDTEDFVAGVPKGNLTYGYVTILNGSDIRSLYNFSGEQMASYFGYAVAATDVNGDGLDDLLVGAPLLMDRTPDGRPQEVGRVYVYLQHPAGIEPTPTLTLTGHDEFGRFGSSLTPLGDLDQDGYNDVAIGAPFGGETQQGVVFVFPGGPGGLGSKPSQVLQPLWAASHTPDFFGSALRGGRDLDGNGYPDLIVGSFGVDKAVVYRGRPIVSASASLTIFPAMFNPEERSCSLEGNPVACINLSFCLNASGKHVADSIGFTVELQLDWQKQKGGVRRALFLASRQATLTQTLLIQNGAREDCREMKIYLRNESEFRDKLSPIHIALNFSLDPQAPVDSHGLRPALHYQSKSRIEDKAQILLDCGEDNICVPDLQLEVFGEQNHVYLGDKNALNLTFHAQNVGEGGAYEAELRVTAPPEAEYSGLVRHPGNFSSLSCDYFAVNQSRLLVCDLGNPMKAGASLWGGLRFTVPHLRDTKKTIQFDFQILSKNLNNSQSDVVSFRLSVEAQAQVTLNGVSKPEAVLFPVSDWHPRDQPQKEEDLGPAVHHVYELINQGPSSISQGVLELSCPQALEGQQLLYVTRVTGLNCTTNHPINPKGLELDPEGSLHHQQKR
T1 sequence (P08648 895-1049 limits assumed): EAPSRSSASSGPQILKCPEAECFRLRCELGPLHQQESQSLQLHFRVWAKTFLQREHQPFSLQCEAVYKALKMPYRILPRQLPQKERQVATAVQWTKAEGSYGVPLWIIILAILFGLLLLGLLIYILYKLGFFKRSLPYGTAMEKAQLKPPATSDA
T1 sequence (P05556 21-798): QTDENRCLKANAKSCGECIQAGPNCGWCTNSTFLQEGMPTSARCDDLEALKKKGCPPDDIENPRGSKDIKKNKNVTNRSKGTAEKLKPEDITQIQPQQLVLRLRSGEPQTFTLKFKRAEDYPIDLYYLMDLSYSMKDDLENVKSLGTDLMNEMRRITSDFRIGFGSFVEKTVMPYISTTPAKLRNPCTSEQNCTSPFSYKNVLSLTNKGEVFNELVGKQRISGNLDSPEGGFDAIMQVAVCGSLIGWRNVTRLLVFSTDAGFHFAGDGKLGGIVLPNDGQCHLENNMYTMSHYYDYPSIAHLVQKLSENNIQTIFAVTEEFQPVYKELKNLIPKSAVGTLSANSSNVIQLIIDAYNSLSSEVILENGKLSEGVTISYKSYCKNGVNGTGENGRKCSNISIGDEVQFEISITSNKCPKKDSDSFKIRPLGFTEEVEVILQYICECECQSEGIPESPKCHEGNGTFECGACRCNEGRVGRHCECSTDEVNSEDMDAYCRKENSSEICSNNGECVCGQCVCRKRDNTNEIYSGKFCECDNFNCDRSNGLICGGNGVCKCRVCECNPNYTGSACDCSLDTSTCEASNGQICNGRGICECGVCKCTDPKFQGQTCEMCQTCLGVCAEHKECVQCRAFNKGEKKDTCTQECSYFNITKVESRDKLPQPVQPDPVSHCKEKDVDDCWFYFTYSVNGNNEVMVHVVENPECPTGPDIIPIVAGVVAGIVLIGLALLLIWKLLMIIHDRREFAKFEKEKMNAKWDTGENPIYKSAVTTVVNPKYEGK

Q: For N=C(N)NCCC[C@H](N)C(=O)NCC(=O)N[C@@H](CC(=O)O)C(=O)O [RGD, reference compound], which “inhibition of K562 adhesion to FN at the maximal concentration tested” value is on record?
A: The value was “completely inhibited”.

Q: With PRARIY-OH [SEQ ID NO:24, PRARIY] as the molecule, how does the “inhibition of K562 adhesion to FN at the maximal concentration tested” value read?
A: Its value is “completely inhibited”.

Same assay, conditions: K562 cells stimulated with 1 mM MnCl2, adhesion to FN; read-out: half-maximal inhibitory concentration

Q: Which IC50 does the source give for PRARIY-OH [SEQ ID NO:24, PRARIY] here?
A: Its IC50 is about 200 µM.

Molecular target: α5β1 integrin (UniProt P08648 42-1049; P05556 21-798)
Test: cell-based or functional assay
Conditions: not given

Sequence of α5β1 integrin (UniProt P08648 42-1049; P05556 21-798) (P08648 42-1049, chain 1 of 2): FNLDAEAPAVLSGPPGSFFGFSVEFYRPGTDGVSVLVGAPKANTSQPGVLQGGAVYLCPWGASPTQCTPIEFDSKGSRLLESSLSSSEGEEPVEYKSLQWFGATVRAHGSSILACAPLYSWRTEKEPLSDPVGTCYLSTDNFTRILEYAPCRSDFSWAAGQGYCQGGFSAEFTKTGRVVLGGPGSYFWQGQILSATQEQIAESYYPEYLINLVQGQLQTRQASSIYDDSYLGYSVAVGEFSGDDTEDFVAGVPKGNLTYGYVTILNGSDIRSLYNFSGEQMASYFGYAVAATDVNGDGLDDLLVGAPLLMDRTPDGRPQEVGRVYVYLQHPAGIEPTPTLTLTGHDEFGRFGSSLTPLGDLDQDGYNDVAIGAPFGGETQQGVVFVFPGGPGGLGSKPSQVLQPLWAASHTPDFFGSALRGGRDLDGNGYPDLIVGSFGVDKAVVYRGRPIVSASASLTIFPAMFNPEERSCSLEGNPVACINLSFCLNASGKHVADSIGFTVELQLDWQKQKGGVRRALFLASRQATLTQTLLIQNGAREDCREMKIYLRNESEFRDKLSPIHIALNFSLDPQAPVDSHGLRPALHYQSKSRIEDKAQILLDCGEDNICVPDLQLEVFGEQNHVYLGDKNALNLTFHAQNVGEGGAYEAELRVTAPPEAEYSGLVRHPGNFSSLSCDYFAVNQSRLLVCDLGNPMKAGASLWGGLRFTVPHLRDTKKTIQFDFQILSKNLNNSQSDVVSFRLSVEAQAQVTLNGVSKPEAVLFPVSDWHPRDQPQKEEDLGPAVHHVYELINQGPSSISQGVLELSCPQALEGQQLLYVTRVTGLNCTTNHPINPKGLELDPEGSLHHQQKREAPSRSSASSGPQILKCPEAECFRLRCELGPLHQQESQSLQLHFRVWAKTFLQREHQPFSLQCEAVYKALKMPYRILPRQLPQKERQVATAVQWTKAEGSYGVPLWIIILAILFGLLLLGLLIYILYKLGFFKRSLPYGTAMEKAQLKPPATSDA
Sequence of α5β1 integrin (UniProt P08648 42-1049; P05556 21-798) (P05556 21-798, chain 2 of 2): as the sequence (P05556 21-798) above

Q: Which “half-maximal inhibitory concentration (K562 adhesion to FN)” value does the source give for WQPPRARIY [FN-C/H V+Y] here?
A: Its value is 0.2 mM.

Q: For RIY, which “half-maximal inhibitory concentration (K562 adhesion to FN)” value is on record?
A: Its value is about 0.2 mM.

Tested on: peripheral blood mononuclear cells and spleen cells
Test: not given
Conditions: reported, Wahl et al.; cited from earlier work

Q: Which “inhibition of leukocyte adhesion to fibronectin in vitro” value does the source give for “SPPRRARVTY (listed as Homo sapiens) [FN-C/H IV+Y]” here?
A: Its value is “inhibit leukocyte adhesion to fibronectin in vitro”.

Molecular target: α4β1 integrin (Homo sapiens, UniProt P05556+P13612)
Test: Inhibition of α4β1 dependent adhesion of 8A2 stimulated Ramos cells to IIICS-GST
Format: cell-based
Design: endogenous in cells; host or cells: Ramos cells
Conditions: Ramos cells activated with mAb 8A2, preincubated with peptide, result in words
Description: IIICS-GST is recombinantly produced fusion protein which contains a fragment from the type III CS region (“IIICS”) of plasma fibronectin fused to glutathione-S-transferase (“GST”). The fibronectin fragment corresponds to fibronectin amino acid residues 1961 to 2039 (sequence numbering for fibronectin as designated in U.S. Pat. No. 4,839,464) and includes the […] (SEQ ID NO:46) amino acid sequence (“CS1”; fibronectin residues 1961-1985). […] In the assay, a 96-well plate was coated with the substrate IIICS-GST. Ramos cells stimulated with the β1 activating monoclonal antibody 8A2 (“Ab 8A2”) were preincubated with one of the peptides to be evaluated for their ability to adhere to IIICS-GST.
The fusion protein can be constructed by first using PCR primers to amplify the coding sequence for residues 1961-2039 of plama fibronectin. The PCR product can be introduced into a suitable bacterial expression vector in frame with the gene for GST. The resulting vector can be transformed and expressed in a suitable host cell, such as E Coli, to produce the fusion protein. If desired, the fusion protein can be purified using a glutathione column.
A 96-well plate was coated in triplicate with […] of IIICS-GST diluted to […] in PBS containing 1 mM CaCl2, MgCl2 (“PBS/cations”) and incubated overnight at 37° C. The IIICS-GST solution was removed and the wells were blocked with 150 μ/well of PBS/cations containing 0.3% BSA for 1-2 hours at 37° C. During the assay each well contained 100 μl of Ramos cells (10,000 cells/well) with or without peptide. Ramos cells were washed 3 times in adhesion media (DMEM without phenol red containing 20 mM HEPES and 3 mg/ml BSA). Cells were counted and resuspended at 200,000 cells/ml. Concentrated Ramos cells were labeled for 20 minutes at 37° C. with 50 μg of the fluorescent label BCECF resuspended in 30 μl of dimethylsulfoxide (“DMSO”). The labeled cells were centrifuged and resuspended in adhesion media at a concentration of 200,000 cells/ml. The cells were activated with the activating Ab 8A2 at a concentration of 2 μg/ml purified IgG or 1:1000 culture supernatant.
While the cells were being labeled, inhibiting peptide dilutions were prepared. Lyophilized peptides were weighed and resuspended in adhesion media at a stock concentration of twice the maximal inhibitory concentration. If a peptide was difficult to get into solution, it was initially resuspended in 30 μl of DMSO. If a peptide needed to be suspended in DMSO, all of the eptides in that particular experiment (including the controls) were suspended in 30 μl of DMSO. […] The dose-dependent dilutions of peptides were prepared using adhesion media to dilute the stock peptide. Labeled cells were mixed with peptide dilutions for 5 minutes at 37° C. at a final concentration of 100,000 cells/ml and appropriate final peptide concentrations.
The blocking solution was removed from the 96-well plate and the cell/peptide mixture is added at 100 μl/well (10,000 cells/well) and incubated for 30 minutes at 37° C. An aliquot of standard cells/peptide (100 μl) was placed at 37° C. for quantitating adhesion. Using aspiration, non-adherent cells were removed from the plate. The standard cells were centrifuged and resuspended in […] of adhesion media. The standard cells were added to empty wells at 100, 80, 60, 40, 20 and 0 μl /well representing 100%, 80%, 60%, 40%, 20% and 0% adhesion, respectively. The plate fluorescence was read at excitation 485 and emission 530. Cell adhesion was represented as percent input cells remaining adherent and was determined by a standard curve of the fluorescence obtained with the standard cells. The experimental fluorescence readings were extrapolated from the standard curve to obtain percent adhesion.

Sequence of α4β1 integrin (P13612 34-1032): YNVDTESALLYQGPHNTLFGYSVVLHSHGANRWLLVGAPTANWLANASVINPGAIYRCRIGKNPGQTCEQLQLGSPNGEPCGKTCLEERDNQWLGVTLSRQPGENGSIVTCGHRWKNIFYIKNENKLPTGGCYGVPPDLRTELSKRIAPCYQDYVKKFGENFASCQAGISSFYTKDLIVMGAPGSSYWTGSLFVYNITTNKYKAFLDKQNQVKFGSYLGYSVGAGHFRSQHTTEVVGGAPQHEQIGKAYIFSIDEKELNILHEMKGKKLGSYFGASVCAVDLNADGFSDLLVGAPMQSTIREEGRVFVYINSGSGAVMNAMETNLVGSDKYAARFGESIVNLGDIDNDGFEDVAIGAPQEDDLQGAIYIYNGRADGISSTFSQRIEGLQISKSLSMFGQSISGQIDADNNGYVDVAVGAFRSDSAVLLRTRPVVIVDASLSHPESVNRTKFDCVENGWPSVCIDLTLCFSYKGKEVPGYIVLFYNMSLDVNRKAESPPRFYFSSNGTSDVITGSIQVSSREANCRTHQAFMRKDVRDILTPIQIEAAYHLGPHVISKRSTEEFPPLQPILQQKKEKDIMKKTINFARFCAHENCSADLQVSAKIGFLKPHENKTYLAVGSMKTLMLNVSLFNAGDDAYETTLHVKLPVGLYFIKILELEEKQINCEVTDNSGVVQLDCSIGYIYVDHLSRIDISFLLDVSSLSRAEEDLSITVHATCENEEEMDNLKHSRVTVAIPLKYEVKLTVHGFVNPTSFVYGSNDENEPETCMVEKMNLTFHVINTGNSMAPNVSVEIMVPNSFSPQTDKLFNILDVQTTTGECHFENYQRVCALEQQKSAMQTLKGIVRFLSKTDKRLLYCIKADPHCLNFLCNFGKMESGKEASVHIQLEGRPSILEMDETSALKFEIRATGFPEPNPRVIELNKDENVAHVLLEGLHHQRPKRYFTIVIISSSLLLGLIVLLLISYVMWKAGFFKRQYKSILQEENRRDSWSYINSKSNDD
Sequence of α4β1 integrin (P05556 21-798): as the sequence (P05556 21-798) above

Q: For “AQPPRARIY (listed as Homo sapiens) [SEQ ID NO:3]”, which “inhibition of adhesion of 8A2 stimulated Ramos cells to IIICS-GST” value (“inhibition of adhesion … to IIICS-GST” for short) is on record?
A: Its value is “capable of inhibiting β1 integrin dependent cell adhesion”.

Q: With “ARITGYIIY (listed as Homo sapiens) [SEQ ID NO:14]” as the molecule, how does the “inhibition of adhesion … to IIICS-GST” value read?
A: The value was “exhibit the capability of inhibiting β1 integrin subunit dependent adhesion; also recorded: most active peptide; also recorded: inhibited cell adhesion”.

Q: Which “inhibition of adhesion … to IIICS-GST” value does the source give for “ARIY (listed as Homo sapiens) [SEQ ID NO:26]” here?
A: Its value is “comparable on an equimolar basis to that of Y-tagged FN C/H V”.

Q: Which “inhibition of adhesion … to IIICS-GST” value does the source give for “IYWQPPRAR (listed as Homo sapiens) [SEQ ID NO:34]” here?
A: Its value is “inactive”.

Q: For “PPRARIY (listed as Homo sapiens) [SEQ ID NO:23]”, which “inhibition of adhesion … to IIICS-GST” value is on record?
A: Its value is “also exhibited α4β1 integrin dependent cell adhesion inhibition activity”.

Q: With “PRARI (listed as Homo sapiens) [SEQ ID NO:39]” as the molecule, how does the “inhibition of adhesion … to IIICS-GST” value read?
A: Its value is “not PRARI was able to inhibit”.

Q: For PRARIY-OH [SEQ ID NO:24, PRARIY], which “inhibition of adhesion … to IIICS-GST” value is on record?
A: The value was “comparable on an equimolar basis to that of the 9 residue peptide, Y-tagged FN C/H V; also recorded: able to inhibit”.

Q: For “PRQAWRPIY (listed as Homo sapiens) [SEQ ID NO:18]”, which “inhibition of adhesion … to IIICS-GST” value is on record?
A: The value was “exhibit the capability of inhibiting β1 integrin subunit dependent adhesion; also recorded: inhibited cell adhesion”.

Q: Which “inhibition of adhesion … to IIICS-GST” value does the source give for “QPPRARIY (listed as Homo sapiens) [SEQ ID NO:22]” here?
A: The value was “also exhibited α4β1 integrin dependent cell adhesion inhibition activity”.

Q: Which “inhibition of adhesion … to IIICS-GST” value does the source give for “RARITGYIY (listed as Homo sapiens) [SEQ ID NO:13]” here?
A: The value was “exhibit the capability of inhibiting β1 integrin subunit dependent adhesion; also recorded: exhibited α4β1 integrin dependent cell adhesion inhibition”.

Q: With “RARIY (listed as Homo sapiens) [SEQ ID NO:25]” as the molecule, how does the “inhibition of adhesion … to IIICS-GST” value read?
A: The value was “comparable on an equimolar basis to that of the 9 residue peptide, Y-tagged FN C/H V”.

Q: With “RPAPQRWIY (listed as Homo sapiens) [SEQ ID NO:20]” as the molecule, how does the “inhibition of adhesion … to IIICS-GST” value read?
A: The value was “exhibit the capability of inhibiting β1 integrin subunit dependent adhesion; also recorded: inhibited cell adhesion”.

Q: For “RPQIPWARY (listed as Homo sapiens) [SEQ ID NO:2]”, which “inhibition of adhesion … to IIICS-GST” value is on record?
A: Its value is “did not inhibit cell adhesion”.

Q: With “WAPPRARIY (listed as Homo sapiens) [SEQ ID NO:4]” as the molecule, how does the “inhibition of adhesion … to IIICS-GST” value read?
A: Its value is “capable of inhibiting β1 integrin dependent cell adhesion”.

Q: Which “inhibition of adhesion … to IIICS-GST” value does the source give for “WQPIYPRAR (listed as Homo sapiens) [SEQ ID NO:35]” here?
A: The value was “inactive”.

Q: Which “inhibition of adhesion … to IIICS-GST” value does the source give for “WQPPAARIY (listed as Homo sapiens) [SEQ ID NO:7]” here?
A: Its value is “capable of inhibiting β1 integrin dependent cell adhesion”.

Q: Which “inhibition of adhesion … to IIICS-GST” value does the source give for “WQPPDADIY (listed as Homo sapiens) [SEQ ID NO:38]” here?
A: The value was “inhibits the 8A2 stimulated adhesion of Ramos cells at least as strongly as FN-C/H V+Y; also recorded: does not alter the ability of the peptide to inhibit β1 integrin subunit dependent adhesion”.

Q: With “WQPPRAAIY (listed as Homo sapiens) [SEQ ID NO:8]” as the molecule, how does the “inhibition of adhesion … to IIICS-GST” value read?
A: Its value is “capable of inhibiting β1 integrin dependent cell adhesion”.

Q: Which “inhibition of adhesion … to IIICS-GST” value does the source give for “WQPPRARI (listed as Homo sapiens) [SEQ ID NO:37, reference compound]” here?
A: The value was “also inactive”.

Q: Which “inhibition of adhesion … to IIICS-GST” value does the source give for “WQPPRARIF (listed as Homo sapiens) [SEQ ID NO:32]” here?
A: Its value is “comparable to that of FN C/H V+Y”.

Q: With “WQPPRARIW (listed as Homo sapiens) [SEQ ID NO:33]” as the molecule, how does the “inhibition of adhesion … to IIICS-GST” value read?
A: Its value is “comparable to that of FN C/H V+Y”.

Q: With “WQPPRARLY (listed as Homo sapiens) [SEQ ID NO:28]” as the molecule, how does the “inhibition of adhesion … to IIICS-GST” value read?
A: The value was “comparable to that of FN C/H V+Y”.

Q: Which “inhibition of adhesion … to IIICS-GST” value does the source give for “WQPPRARVY (listed as Homo sapiens) [SEQ ID NO:29]” here?
A: Its value is “comparable to that of FN C/H V+Y”.

Q: Which “inhibition of adhesion … to IIICS-GST” value does the source give for “WQPPRARYI (listed as Homo sapiens) [SEQ ID NO:36]” here?
A: Its value is “inactive”.

Q: With “all D-form of FN-C/H V+Y: all D-form of FN-C/H V+Y (SEQ ID NO:1) ([dW][dQ][dP][dP][dR][dA][dR][dI][dY]; listed as Homo sapiens)” as the molecule, how does the “inhibition of adhesion … to IIICS-GST” value read?
A: The value was “Neither of these two compounds inhibited Ramos cell binding”.

Same assay, conditions: Ramos cells activated with mAb 8A2, preincubated with peptide, result in words, listed as D-amino acid FN-C/H V−Y

Q: For “all D-form of FN-C/H V+Y: all D-form of FN-C/H V+Y (SEQ ID NO:1) ([dW][dQ][dP][dP][dR][dA][dR][dI][dY]; listed as Homo sapiens)”, which “inhibition of adhesion … to IIICS-GST” value is on record?
A: The value was “unable to inhibit adhesion”.

Same assay, conditions: Ramos cells activated with mAb 8A2, preincubated with peptide, result in words, listed as retro inverso FN-C/H V+Y

Q: For “YIRARPPQW (not fully specified (some residues); listed as Homo sapiens) [SEQ ID NO:40]”, which “inhibition of adhesion … to IIICS-GST” value is on record?
A: The value was “Neither of these two compounds inhibited Ramos cell binding”.

Same assay, conditions: Ramos cells activated with mAb 8A2, preincubated with peptide, result in words, listed as retro-inverso FN-C/H V−Y

Q: Which “inhibition of adhesion … to IIICS-GST” value does the source give for “YIRARPPQW (not fully specified (some residues); listed as Homo sapiens) [SEQ ID NO:40]” here?
A: The value was “unable to inhibit adhesion”.

Tested on: α2β1 and α3β1 integrin
Test: Inhibition of α2β1, α3β1 integrin dependent human melanoma M14#5 cell adhesion to laminin and type IV collagen
Format: cell-based
Conditions: 0.5 mg/ml peptide (0.42 mM), 30 minutes, laminin coated substrate
Method: An experiment was conducted to examine the ability of FN-C/H V+Y (SEQ ID NO:1) to inhibit α2β1, α3β1 integrin dependent cell adhesion using an assay based on human melanoma cells (M14#5).
Laminin, type IV collagen and BSA were coated overnight in a 96 well microtiter plate at 10 μg/ml and blocked with 0.3% BSA. M14#5 cells were preincubated with 0.5 mg/ml of peptide (equivalent to 0.42 mM FN-C/H V and scrambled FN-C/H V and 0.17 mM CSI) and allowed to adhere to substrates for 30 minutes.

Q: For “RPQIPWARY (listed as Homo sapiens) [SEQ ID NO:2]”, which “inhibition of M14#5 cell adhesion to laminin” value is on record?
A: The value was “has no effect”.

Same assay, conditions: 0.5 mg/ml peptide (0.42 mM), 30 minutes, type IV collagen coated substrate

Q: With “RPQIPWARY (listed as Homo sapiens) [SEQ ID NO:2]” as the molecule, how does the “inhibition of M14#5 cell adhesion to type IV collagen” value read?
A: The value was “has no effect”.
